Experimental data reported in PMC5566211.

Key:
Assay in all cases: purified protein
Conditions in all cases: phosphate-buffered saline 50 mM, pH 7.0, 37 °C
[1] = test system: Cc1nnc(SCC2=C(C(=O)O)N3C(=O)[C@@H](NC(=O)Cn4cnnn4)[C@H]3SC2)s1
[2] = test system: CO/N=C(\C(=O)N[C@@H]1C(=O)N2C(C(=O)[O-])=C(C[N+]3(C)CCCC3)CS[C@H]12)c1csc(N)n1
[3] = test system: CC(=O)OCC1=C(C(=O)O)N2C(=O)[C@@H](NC(=O)Cc3cccs3)[C@H]2SC1
[4] = test system: CO/N=C(\C(=O)N[C@@H]1C(=O)N2C(C(=O)O)=C(COC(C)=O)CS[C@H]12)c1csc(N)n1
[5] = test system: CO/N=C(\C(=O)N[C@@H]1C(=O)N2C(C(=O)O)=C(CSc3nc(=O)c(=O)[nH]n3C)CS[C@H]12)c1csc(N)n1
[6] = test system: C[C@@H](O)[C@H]1C(=O)N2C(C(=O)O)=C(S[C@@H]3CN[C@H](C(=O)N(C)C)C3)[C@H](C)[C@H]12
[7] = test system: CC1=C(C(=O)O)N2C(=O)[C@@H](NC(=O)[C@H](N)C3=CCC=CC3)[C@H]2SC1
[8] = test system: Cc1onc(-c2ccccc2)c1C(=O)N[C@@H]1C(=O)N2[C@@H]1SC(C)(C)[C@@H]2C(=O)O
[9] = test system: CCN1CCN(C(=O)N[C@@H](C(=O)N[C@@H]2C(=O)N3C(C(=O)O)=C(CSc4nnnn4C)CS[C@H]23)c2ccc(O)cc2)C(=O)C1=O
[10] = test system: C[C@H]1[C@H](NC(=O)/C(=N\OC(C)(C)C(=O)O)c2csc(N)n2)C(=O)N1S(=O)(=O)O
[11] = test system: CC(C)(O/N=C(\C(=O)N[C@@H]1C(=O)N2C(C(=O)[O-])=C(C[n+]3ccccc3)CS[C@H]12)c1csc(N)n1)C(=O)O

PAD-1 (Paramesorhizobium deserti)
Km [1]: 89.16 µM
kcat [1]: 22.6 s⁻¹
kcat/Km [1]: 253000 M⁻¹ s⁻¹
Km [2]: 108.40 µM
kcat [2]: 10.4 s⁻¹
kcat/Km [2]: 95900 M⁻¹ s⁻¹
Km [3]: 91.59 µM
kcat [3]: 15.2 s⁻¹
kcat/Km [3]: 166000 M⁻¹ s⁻¹
Km [4]: 137.08 µM
kcat [4]: 20.1 s⁻¹
kcat/Km [4]: 146000 M⁻¹ s⁻¹
Km [5]: 90.84 µM
kcat [5]: 16.3 s⁻¹
kcat/Km [5]: 179000 M⁻¹ s⁻¹
Km [6]: 389.69 µM
kcat [6]: 24.2 s⁻¹
kcat/Km [6]: 62200 M⁻¹ s⁻¹
Km [7]: 347.9 µM
kcat [7]: 31.8 s⁻¹
kcat/Km [7]: 91300 M⁻¹ s⁻¹
Km [8]: 383.96 µM
kcat [8]: 58.7 s⁻¹
kcat/Km [8]: 153000 M⁻¹ s⁻¹
Km [9]: 47.80 µM
kcat [9]: 15.1 s⁻¹
kcat/Km [9]: 315000 M⁻¹ s⁻¹
Km [10]: 276.08 µM
kcat [10]: 39 s⁻¹
kcat/Km [10]: 141000 M⁻¹ s⁻¹
Km [11]: 110.04 µM
kcat [11]: 12.1 s⁻¹
kcat/Km [11]: 110000 M⁻¹ s⁻¹
